Experiment [1] has as its target T1, HLA-DR9 (DRB1*0901) (human).
T1 chain 1: not shown
T1 chain 2: not shown

The target in experiment [2] is T2, HLA-DR6w19 (DRB1*1302) (human).
T2 chain 1: not shown
T2 chain 2: not shown

For experiment [3], the target named is T3, HLA-DR8w2 (DRB1*0802) (human).
T3 chain 1: not shown
T3 chain 2: not shown

For experiment [4], the target named is T4, HLA-DR5w12 (DRB1*1201) (human).
T4 chain 1: not shown
T4 chain 2: not shown

Experiment [5] has as its target T5, HLA-DR7 (DRB1*0701) (human).
T5 chain 1: not shown
T5 chain 2: not shown

For experiment [6], the target named is HLA-A*1101 (purified HLA class I molecule) (human).
Experiment [7] addresses HLA-DR2w2β1 (DRB1*1501) (human).
Experiment [8] deals with HLA-DR5w11 (DRB1*1101) (human).
Experiment [9] deals with HLA-DR2w2β2 (DRB5*0101) (human).
Experiment [10] concerns the target HLA-DR4w15 (DRB1*0405) (human).
For experiment [11], the target named is HLA-DR3 (DRB1*0301) (human).
Experiment [12] concerns the target HLA-A*1101 (Human).
The target in experiment [13] is HLA-A*6801 (human). The experiment can be described thus: competition with 125I-labelled standard peptide for purified HLA, gel filtration.
Experiment [14] concerns the target HLA-A*0301 (human). Described as above.
The target in experiment [15] is HLA-A*1101 (human). The description is as above.
For experiment [16], the target named is HLA-A*3301 (human). The experiment is described as above.
Experiment [17] addresses HLA-A*0201 (human).
Experiment [18] concerns the target HLA-A*0301 (human). The experiment can be described thus: competition with 125I-labeled probe peptide for purified HLA, gel filtration. Conditions: scale: ratio. For orientation: Size exclusion chromatography separates by hydrodynamic size, large species first.
The target of experiment [19] is HLA-A*1101 (human). The description is as above. Conditions: scale: ratio.
In experiment [20] the target is HLA-A*1101 (human).
Experiment [21] addresses T1, HLA-DR9 (DRB1*0901) (human).
Experiment [22] deals with T6, HLA-DRw53 (DRB4*0101) (human).
T6 chain 1: not shown
T6 chain 2: not shown

In experiment [23] the target is T2, HLA-DR6w19 (DRB1*1302) (human).
In experiment [24] the target is T3, HLA-DR8w2 (DRB1*0802) (human).
In experiment [25] the target is T4, HLA-DR5w12 (DRB1*1201) (human).
The target of experiment [26] is T5, HLA-DR7 (DRB1*0701) (human).
Experiment [27] concerns the target HLA-DR1 (DRB1*0101) (human).
Experiment [28] concerns the target HLA-DR4w4 (DRB1*0401) (human).

Like-named read-outs stand apart in the source and are kept apart here.

For the molecule VFFLALFFIIFNKES (modifications not checked) [… (Pf EXP 6)], the binding affinity ratio (IC50 of standard peptide / IC50 of test peptide) in [1] was -0.0018; in experiment [2], -0.0002; in [3], -0.0007; in experiment [4], 0.0002; in experiment [5] it was 0.0056.
For the molecule SVTCGKGTR (modifications not checked) [… (Pf SSP2 254, 9-mer)], the binding affinity ratio (IC50 of standard peptide / IC50 of test peptide) in experiment [6] was determined as 0.0009.
With VSTVLLGGVGLVLYN (modifications not checked), the binding affinity ratio (IC50 of standard peptide / IC50 of test peptide) in experiment [7] was 0.008; in [8], 0.0003; in experiment [9], 0.0005; in experiment [10], -0.0009; in experiment [11], -0.0008.
With TVLLGGVGLVLYNTE (modifications not checked) [… (Pf EXP 90)], the results for the binding affinity ratio (IC50 of standard peptide / IC50 of test peptide) in experiment [3], in experiment [4] and in [5] were -0.0002, 0.0004 and 0.0007, respectively.
Take LDYENDIEKK (modifications not checked): in experiment [12], the binding affinity ratio (IC50 of standard peptide / IC50 of test peptide) is 0.0002.
On the same count and under the same terms, the figure for NLYNELEMNY (modifications not checked) [… (CSP 46)] is 0.0002.
PSPNPEEGK (modifications not checked): the binding affinity ratio (IC50 of standard peptide / IC50 of test peptide) came out at 0.0002 in [13], 0.0005 in experiment [14], 0.0002 in experiment [15] and 0.001 in [16].
For the molecule SVFNVVNSSI (modifications not checked) [… (P. falciparum CSP, position 415, 10 amino acids)], in experiment [17], the binding affinity ratio (IC50 of standard peptide / IC50 of test peptide) was found to be 0.0005.
Take QVRKHLNDR (modifications not checked): the binding affinity ratio (IC50 of standard peptide / IC50 of test peptide) came to 0.0002 in experiment [13], 0.0005 in experiment [14] and 0.0002 in experiment [15].
As to GVSSKKKNKK (modifications not checked) [… (P. falciparum EXP, position 32, 10 amino acids)], the figures for the binding affinity ratio (relative to standard peptide) in experiment [18] and in [19] were 0.0011 and 0.0002, respectively.
For the molecule ADSAWENVK (modifications not checked) [… (Pf SSP2 position 216)], the binding affinity ratio (IC50 of standard peptide / IC50 of test peptide) in experiment [20] was 0.0009.
Take TCGKGTRSRK (modifications not checked) [… (Pf SSP2 256, 10-mer)]: in experiment [6], the binding affinity ratio (IC50 of standard peptide / IC50 of test peptide) worked out at 0.0002.
For VTCGNGIQV (modifications not checked) [… (P. falciparum CSP, position 375, 9 amino acids)], in [17], the binding affinity ratio (IC50 of standard peptide / IC50 of test peptide) turned out to be 0.0011.
Turning to LALFFIIFNK (modifications not checked) [Pf EXP peptide … (position 9)], the binding affinity ratio (relative to standard peptide) in experiment [20] stood at 0.053.
On to SDASKNKEK (modifications not checked) [… (Pf SSP2 105, 9-mer)], for which the binding affinity ratio (IC50 of standard peptide / IC50 of test peptide) in experiment [6] was 0.0002.
Turning to ILSVFFLALFFIIFN (modifications not checked) [… (Pf EXP 3)], the binding affinity ratio (IC50 of standard peptide / IC50 of test peptide) in experiment [1] is -0.0003; in experiment [2] it was 0.0005; in experiment [3] it was 0.0031; in experiment [4], 0.0008; in experiment [5], 0.011.
LDYENDIEK (modifications not checked): the binding affinity ratio (IC50 of standard peptide / IC50 of test peptide) in experiment [12] is 0.0002.
ANQLVVILTDGIPDS (modifications not checked): the binding affinity ratio (IC50 of standard peptide / IC50 of test peptide) in experiment [7] is 0.0008; in experiment [8], -0.0002; in experiment [9], -0.0005.
In the case of GVSSKKKNK (modifications not checked) [… (P. falciparum EXP, position 32, 9 amino acids)], the binding affinity ratio (relative to standard peptide) was 0.0001 in experiment [18] and 0.0002 in experiment [19].
With NLPNDKSDR (modifications not checked) [… (Pf SSP2 406)], the binding affinity ratio (IC50 of standard peptide / IC50 of test peptide) in experiment [20] amounted to 0.0002.
For the molecule NGDNGREGK (modifications not checked) [… (CSP 82)], the binding affinity ratio (IC50 of standard peptide / IC50 of test peptide) in experiment [12] is 0.0002.
Consider IGPFMKAVCVEVEKT (modifications not checked) [… (Pf SSP2 227)], for which the binding affinity ratio (IC50 of standard peptide / IC50 of test peptide) is 0.082 in experiment [21]; 0.07 in experiment [22]; 0.0003 in experiment [23]; -0.0003 in experiment [24]; 0.0038 in experiment [25]; 0.0019 in [26].
Regarding VSTVLLGGVGLVLYN (modifications not checked) [… (Pf EXP 88)], the binding affinity ratio (IC50 of standard peptide / IC50 of test peptide) in experiment [1] is 0.012; in [2] it was 0.0002; in experiment [3], -0.0002; in experiment [4] it was 0.0011; in experiment [5], 0.002.
For NMPNDPNRNV (modifications not checked) [… (P. falciparum CSP, position 323, 10 amino acids)], the binding affinity ratio (IC50 of standard peptide / IC50 of test peptide) in experiment [17] is 0.0007.
As for LIDVHDLISDMIKKE (modifications not checked) [… (Pf EXP 47)], the binding affinity ratio (IC50 of standard peptide / IC50 of test peptide) worked out at 0.043 in experiment [21]; 0.094 in experiment [22]; 0.0004 in experiment [23]; 0.0096 in experiment [24]; 0.0001 in [25]; 0.01 in experiment [26].
In the case of IGPFMKAVCVEVEKT (modifications not checked), the binding affinity ratio (IC50 of standard peptide / IC50 of test peptide) in experiment [7] is 0.0003; in [8] it was -0.0004; in experiment [27] it was 0.0072; in experiment [28] it was -0.0006; in experiment [10], 0.0086; in [11], -0.0008.
In the case of NGREGKDEDK (modifications not checked) [… (CSP 85)], the binding affinity ratio (IC50 of standard peptide / IC50 of test peptide) in [12] is 0.0002.

The record behind these values is patent publication US9266930.
